Source: paper PMC4950921

What was measured:
[1] = target: EphA2 L223R/L254R/V255R mutant (UniProt P29317)
[2] = target: EphA2 L223R/L254R/V255R mutant (UniProt P29317); remark: listed apart in the source

Sequence of UniProt P29317 (P29317 24-976 L223R/L254R/V255R): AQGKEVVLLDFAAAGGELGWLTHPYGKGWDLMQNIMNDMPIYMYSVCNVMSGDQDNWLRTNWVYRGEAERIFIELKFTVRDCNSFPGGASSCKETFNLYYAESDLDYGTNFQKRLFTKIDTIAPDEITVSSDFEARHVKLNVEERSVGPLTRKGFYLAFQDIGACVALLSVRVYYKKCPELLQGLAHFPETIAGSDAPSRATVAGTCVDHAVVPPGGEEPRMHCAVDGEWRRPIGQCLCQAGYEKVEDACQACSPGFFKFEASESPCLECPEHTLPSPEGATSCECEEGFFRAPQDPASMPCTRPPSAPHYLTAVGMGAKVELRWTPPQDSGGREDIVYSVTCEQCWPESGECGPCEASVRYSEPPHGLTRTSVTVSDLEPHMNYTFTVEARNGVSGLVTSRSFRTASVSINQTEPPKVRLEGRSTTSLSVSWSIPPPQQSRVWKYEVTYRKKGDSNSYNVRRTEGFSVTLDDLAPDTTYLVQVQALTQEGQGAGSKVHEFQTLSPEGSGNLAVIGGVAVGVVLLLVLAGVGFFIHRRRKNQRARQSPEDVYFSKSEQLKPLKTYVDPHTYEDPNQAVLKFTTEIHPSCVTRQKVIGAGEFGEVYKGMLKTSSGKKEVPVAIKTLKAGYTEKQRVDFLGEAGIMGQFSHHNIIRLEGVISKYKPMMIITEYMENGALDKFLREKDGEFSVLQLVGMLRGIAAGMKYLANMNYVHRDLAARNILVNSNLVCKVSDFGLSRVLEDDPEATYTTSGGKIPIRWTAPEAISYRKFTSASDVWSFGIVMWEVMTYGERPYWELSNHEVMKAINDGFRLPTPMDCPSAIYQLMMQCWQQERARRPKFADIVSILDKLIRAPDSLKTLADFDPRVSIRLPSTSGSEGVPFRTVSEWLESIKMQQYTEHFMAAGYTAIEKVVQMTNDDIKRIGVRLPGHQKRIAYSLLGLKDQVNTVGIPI

- decrease of EphA2 Ser897 phosphorylation, Western blot, HEK293T, 6 uM YSA [1]: 35%
- suppression of migration of transfected HEK293T cells, transwell assay, 6 uM YSA [2]: 25%
Binder: YSAYPDSVPMMSGSGSK [YSA peptide with the GSGSK linker]
